Measured values from patent publication US7067619 (LA JOLLA CANCER RESEARCH FOUNDATION, dated 2006).
Bridge positions count the residues as written; N and C are the ends. Ends that are not written are not given here.

How the values were obtained:
[1] = target: αvβ5 integrin on HT-29 and UCLA-P3 cells (UniProt P06756 31-1048; P18084 24-799); experiment: cell-based or functional assay
[2] = target: αvβ3 integrin on IMR-90 cells (UniProt P06756 31-1048; P05106 27-788); experiment: cell-based or functional assay
[3] = target: T1, αvβ5 integrin isolated from human placental extract (human, UniProt P06756 31-1048; P18084 24-799); experiment: competition with … phage on αvβ5-coated wells
Protocol: [SEQ ID NO:10] sequence were incubated for 1 hour in integrin-coated wells in the presence of the competing peptides or dimethyl sulfoxide solvent as a control.

[4] = target: T2, αvβ3 integrin isolated from human placental extract (human, UniProt P06756 31-1048; P05106 27-788); experiment: competition with phage on αvβ3-coated wells
T2 construct: isolated on GRGDSPK-Sepharose; said to be primarily αvβ3

[5] = target: T2, αvβ3 integrin isolated from human …; experiment: phage panning on coated integrin
Protocol: In the first panning, the integrins were coated at 5 µg per well, and the library pool was incubated for 4 hours at 25° C. in TBS buffer containing 1% bovine serum albumin and 1 mM MnCl_2 (α_5β_1, α_vβ_3) 1 mM MgCl_2 ($\alphaIIb\beta_3$) or 1 mM CaCl_2 (α_vβ_5).

[6] = target: T3, α5β1 integrin isolated from human placental extract (human, UniProt P08648 42-1049; P05556 21-798); experiment: phage binding to integrin-coated wells
T3 construct: coated on plastic wells or captured by anti-α5 antibody; also called fibronectin receptor

[7] = target: T1, αvβ5 integrin isolated from human …; experiment: phage competition on αvβ5-coated wells
[8] = target: T2, αvβ3 integrin isolated from human …; experiment: phage competition on αvβ3-coated wells

αvβ5 integrin on HT-29 and UCLA-P3 cells, sequence (P06756 31-1048, chain 1 of 2): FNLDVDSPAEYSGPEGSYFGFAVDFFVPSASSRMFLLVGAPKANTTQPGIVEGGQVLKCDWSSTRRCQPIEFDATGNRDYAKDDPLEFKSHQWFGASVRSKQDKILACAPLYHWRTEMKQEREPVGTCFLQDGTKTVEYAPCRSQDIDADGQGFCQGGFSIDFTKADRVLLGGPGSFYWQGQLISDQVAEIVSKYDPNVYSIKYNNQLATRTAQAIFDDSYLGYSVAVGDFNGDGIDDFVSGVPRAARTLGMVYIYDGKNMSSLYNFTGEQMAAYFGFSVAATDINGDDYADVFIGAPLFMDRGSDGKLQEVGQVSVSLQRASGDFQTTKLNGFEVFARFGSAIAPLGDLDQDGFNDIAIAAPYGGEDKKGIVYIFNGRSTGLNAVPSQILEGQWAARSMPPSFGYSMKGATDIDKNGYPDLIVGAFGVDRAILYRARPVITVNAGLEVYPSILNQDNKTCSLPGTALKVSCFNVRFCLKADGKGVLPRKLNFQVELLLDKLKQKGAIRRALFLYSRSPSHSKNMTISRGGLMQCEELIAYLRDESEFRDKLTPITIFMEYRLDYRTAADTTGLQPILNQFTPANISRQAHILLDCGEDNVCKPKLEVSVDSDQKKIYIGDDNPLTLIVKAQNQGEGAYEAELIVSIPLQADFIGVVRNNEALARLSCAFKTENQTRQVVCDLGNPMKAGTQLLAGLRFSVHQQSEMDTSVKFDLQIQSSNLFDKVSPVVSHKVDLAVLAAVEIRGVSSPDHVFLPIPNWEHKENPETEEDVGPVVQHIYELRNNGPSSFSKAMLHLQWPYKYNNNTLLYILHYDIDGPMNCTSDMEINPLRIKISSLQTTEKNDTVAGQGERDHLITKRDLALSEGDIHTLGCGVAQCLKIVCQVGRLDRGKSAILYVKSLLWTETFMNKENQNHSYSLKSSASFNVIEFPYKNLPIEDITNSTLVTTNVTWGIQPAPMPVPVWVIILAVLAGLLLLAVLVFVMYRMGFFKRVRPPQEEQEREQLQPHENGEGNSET
αvβ5 integrin on HT-29 and UCLA-P3 cells, sequence (P18084 24-799, chain 2 of 2): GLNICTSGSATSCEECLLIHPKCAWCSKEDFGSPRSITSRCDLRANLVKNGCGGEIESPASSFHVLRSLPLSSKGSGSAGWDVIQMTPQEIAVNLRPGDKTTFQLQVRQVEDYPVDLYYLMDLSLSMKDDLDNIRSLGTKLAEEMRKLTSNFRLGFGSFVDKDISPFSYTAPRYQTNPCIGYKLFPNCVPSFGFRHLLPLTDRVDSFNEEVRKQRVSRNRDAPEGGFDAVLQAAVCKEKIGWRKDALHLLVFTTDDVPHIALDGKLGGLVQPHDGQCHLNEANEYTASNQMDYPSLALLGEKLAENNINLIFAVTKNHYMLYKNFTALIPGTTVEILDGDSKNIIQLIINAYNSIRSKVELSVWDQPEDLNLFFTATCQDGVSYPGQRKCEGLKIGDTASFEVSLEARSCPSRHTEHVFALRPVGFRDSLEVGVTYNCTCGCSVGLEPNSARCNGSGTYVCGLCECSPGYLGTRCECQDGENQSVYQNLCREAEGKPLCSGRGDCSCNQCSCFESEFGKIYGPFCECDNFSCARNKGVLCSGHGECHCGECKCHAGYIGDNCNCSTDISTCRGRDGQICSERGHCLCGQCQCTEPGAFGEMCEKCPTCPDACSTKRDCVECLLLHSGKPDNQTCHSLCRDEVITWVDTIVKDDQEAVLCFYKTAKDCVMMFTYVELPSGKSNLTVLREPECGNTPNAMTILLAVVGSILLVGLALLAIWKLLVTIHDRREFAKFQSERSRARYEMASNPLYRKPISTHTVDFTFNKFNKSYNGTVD
T2 sequence (P06756 31-1048, chain 1 of 2): as the sequence (P06756 31-1048, chain 1 of 2) above
T2 sequence (P05106 27-788, chain 2 of 2): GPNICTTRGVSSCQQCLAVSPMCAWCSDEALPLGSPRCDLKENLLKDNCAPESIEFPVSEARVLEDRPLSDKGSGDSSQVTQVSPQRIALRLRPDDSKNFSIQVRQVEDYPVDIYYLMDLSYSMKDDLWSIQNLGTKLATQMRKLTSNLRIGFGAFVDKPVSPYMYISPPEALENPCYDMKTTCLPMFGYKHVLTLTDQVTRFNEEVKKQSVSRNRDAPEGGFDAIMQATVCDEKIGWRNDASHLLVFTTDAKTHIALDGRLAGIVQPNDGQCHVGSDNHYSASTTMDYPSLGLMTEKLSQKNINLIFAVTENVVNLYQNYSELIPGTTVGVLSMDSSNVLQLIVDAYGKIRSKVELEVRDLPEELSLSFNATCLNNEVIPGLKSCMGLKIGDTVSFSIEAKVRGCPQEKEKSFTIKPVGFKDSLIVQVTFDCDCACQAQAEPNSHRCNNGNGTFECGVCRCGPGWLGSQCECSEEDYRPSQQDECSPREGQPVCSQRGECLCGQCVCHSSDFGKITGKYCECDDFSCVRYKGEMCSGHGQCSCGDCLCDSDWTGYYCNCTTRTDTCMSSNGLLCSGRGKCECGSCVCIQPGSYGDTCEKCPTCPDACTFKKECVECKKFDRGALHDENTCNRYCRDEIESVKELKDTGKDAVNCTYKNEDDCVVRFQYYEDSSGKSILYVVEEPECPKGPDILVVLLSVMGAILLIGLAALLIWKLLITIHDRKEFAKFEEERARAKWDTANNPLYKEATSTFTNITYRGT
T1 sequence (P06756 31-1048, chain 1 of 2): as the sequence (P06756 31-1048, chain 1 of 2) above
T1 sequence (P18084 24-799, chain 2 of 2): as the sequence (P18084 24-799, chain 2 of 2) above
αvβ3 integrin on IMR-90 cells, sequence (P06756 31-1048, chain 1 of 2): as the sequence (P06756 31-1048, chain 1 of 2) above
αvβ3 integrin on IMR-90 cells, sequence (P05106 27-788, chain 2 of 2): as the sequence (P05106 27-788, chain 2 of 2) above
T3 sequence (P08648 42-1049, chain 1 of 2): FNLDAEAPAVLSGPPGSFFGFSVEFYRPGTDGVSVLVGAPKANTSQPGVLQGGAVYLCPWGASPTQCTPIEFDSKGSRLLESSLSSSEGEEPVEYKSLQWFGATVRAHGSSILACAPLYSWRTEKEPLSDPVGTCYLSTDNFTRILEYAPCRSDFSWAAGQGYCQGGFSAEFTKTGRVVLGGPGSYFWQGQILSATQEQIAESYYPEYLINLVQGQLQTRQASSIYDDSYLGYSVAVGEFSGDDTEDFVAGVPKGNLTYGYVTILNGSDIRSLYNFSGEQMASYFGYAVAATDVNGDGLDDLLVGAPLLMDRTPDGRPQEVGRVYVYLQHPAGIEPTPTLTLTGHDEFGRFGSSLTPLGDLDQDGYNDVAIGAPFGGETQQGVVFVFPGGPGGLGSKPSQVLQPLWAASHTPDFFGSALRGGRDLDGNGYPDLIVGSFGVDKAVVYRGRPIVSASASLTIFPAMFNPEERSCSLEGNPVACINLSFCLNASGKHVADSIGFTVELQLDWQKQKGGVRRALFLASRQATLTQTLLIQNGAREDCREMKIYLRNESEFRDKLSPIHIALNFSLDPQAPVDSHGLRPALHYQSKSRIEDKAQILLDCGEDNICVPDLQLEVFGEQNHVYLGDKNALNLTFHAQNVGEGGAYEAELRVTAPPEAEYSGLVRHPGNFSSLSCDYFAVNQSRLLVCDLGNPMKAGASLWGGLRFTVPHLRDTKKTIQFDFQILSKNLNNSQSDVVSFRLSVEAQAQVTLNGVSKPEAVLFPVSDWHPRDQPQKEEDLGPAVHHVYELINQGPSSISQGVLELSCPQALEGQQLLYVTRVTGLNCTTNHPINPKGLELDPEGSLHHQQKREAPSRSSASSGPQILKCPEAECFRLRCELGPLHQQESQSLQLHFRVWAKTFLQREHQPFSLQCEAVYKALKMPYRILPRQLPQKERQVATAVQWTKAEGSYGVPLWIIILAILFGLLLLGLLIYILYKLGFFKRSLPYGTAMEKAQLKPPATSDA
T3 sequence (P05556 21-798, chain 2 of 2): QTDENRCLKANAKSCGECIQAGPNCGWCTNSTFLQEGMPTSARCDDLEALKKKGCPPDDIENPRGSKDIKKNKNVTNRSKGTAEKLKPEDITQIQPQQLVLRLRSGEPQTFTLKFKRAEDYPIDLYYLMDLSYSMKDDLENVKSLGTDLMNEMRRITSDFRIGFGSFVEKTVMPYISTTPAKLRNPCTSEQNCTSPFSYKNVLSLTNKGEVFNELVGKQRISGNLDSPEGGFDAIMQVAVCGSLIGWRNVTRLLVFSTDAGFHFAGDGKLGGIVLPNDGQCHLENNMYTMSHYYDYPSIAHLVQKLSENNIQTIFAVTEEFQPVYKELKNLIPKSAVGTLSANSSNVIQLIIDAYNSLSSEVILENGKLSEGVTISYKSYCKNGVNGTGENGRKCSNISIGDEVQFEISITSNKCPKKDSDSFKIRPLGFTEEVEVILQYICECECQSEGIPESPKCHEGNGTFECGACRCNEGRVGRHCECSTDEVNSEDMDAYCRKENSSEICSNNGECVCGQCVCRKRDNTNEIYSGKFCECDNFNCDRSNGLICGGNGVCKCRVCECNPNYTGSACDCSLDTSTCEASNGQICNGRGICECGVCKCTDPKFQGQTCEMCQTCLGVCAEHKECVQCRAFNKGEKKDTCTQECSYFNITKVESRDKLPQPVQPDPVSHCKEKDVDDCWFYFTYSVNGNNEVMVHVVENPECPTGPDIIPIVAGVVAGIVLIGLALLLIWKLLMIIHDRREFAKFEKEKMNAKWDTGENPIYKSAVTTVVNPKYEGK

B1: cyclized peptide ACDCRGDCFCG (peptide)
peptide: ACDCRGDCFCG
modifications: disulfide (positions not given here); also: two disulfide bonds, pairing not determined
notes: synthetic; also called double disulfide bond-containing peptide
- IC50 of inhibition of attachment of HT-29 cells to vitronectin [1]: 600 nM
- IC50 of inhibition of attachment of UCLA-P3 cells to vitronectin [1]: 600 nM
- fold enhancement in activity relative to *CRGDC*, UCLA-P3 cells [1]: 20 fold
- fold higher affinity than *CRGDC*, attachment of HT-29 cells to vitronectin [1]: 40 fold
- fold higher affinity than A*CRGDGWC*G, attachment of HT-29 cells to vitronectin [1]: 40 fold
- IC50 of inhibition of attachment of IMR-90 cells to vitronectin [2]: 200 nM
- fold more effective than *CRGDC*, attachment of IMR-90 cells to vitronectin [2]: 20 fold
- fold more potent than *CRGDC* [3]: 10 fold
- fold better inhibition than *CRGDC* [4]: 5 fold

B2: CPSRLDSPC phage (peptide)
peptide: CPSRLDSPC
modifications: disulfide 1-9 (inferred); not fully specified (N-terminus, C-terminus)
notes: on fuse 5 phage, fused to pIII; also called RLD-containing phage
- binding result [5]: binds
- binding result [6]: no binding

B3: cyclic peptide A*CPSRLDSPC*G (peptide)
peptide: ACPSRLDSPCG
modifications: disulfide 2-10 (inferred)
notes: synthetic; also called RLD-containing peptide
- fold lower activity than *CRGDC* [7]: 1000 fold
- fold lower activity than *CRGDC* [8]: 100 fold
